Laboratory results published in IntAct's records for PubMed 20837657.

B1: Segment polarity protein dishevelled (Drosophila melanogaster (Fruit fly)), P51140 (parent)
chain: MDADRGGGQETKVIYHIDDETTPYLVKIPIPSAQVTLRDFKLVLNKQNNNYKYFFKSMDADFGVVKEEIADDSTILPCFNGRVVSWLVSADGTNQSDNCSELPTSECELGMGLTNRKLQQQQQQHQQQQQQQQQQHQQQQQQQQQQVQPVQLAQQQQQQVLHHQKMMGNPLLQPPPLTYQSASVLSSDLDSTSLFGTESELTLDRDMTDYSSVQRLQVRKKPQRRKKRAPSMSRTSSYSSITDSTMSLNIITVSINMEAVNFLGISIVGQSNRGGDGGIYVGSIMKGGAVALDGRIEPGDMILQVNDVNFENMTNDEAVRVLREVVQKPGPIKLVVAKCWDPNPKGYFTIPRTEPVRPIDPGAWVAHTQALTSHDSIIADIAEPIKERLDQNNLEEIVKAMTKPDSGLEIRDRMWLKITIPNAFIGADAVNWVLENVEDVQDRREARRIVSAMLRSNYIKHTVNKLTFSEQCYYVVNEERNPNLLGRGHLHPHQLPHGHGGHALSHADTESITSDIGPLPNPPIYMPYSATYNPSHGYQPIQYGIAERHISSGSSSSDVLTSKDISASQSDITSVIHQANQLTIAAHGSNKSSGSSNRGGGGGGGGGGNNTNDQDVSVFNYVL

Variants of: B1
Settings: with abl_drome Abl

effect of a mutation on the interaction | Variant
decreasing interaction strength | Y473F
